Reference: the supplement of paper PMC10567573

B1: ALKBH7 (parent)
chain: SVICRSLPEGMGPGESGQPPPAC
B2: SFRS1 (parent)
chain: RDIDLKNRRGGPPFAFVEFEDPRD

Variants of: B1
Test: protein stability index of a GFP-peptide fusion (GPS, HEK-293T) (PSI 1-6); higher = more stable
Conditions: c terminus: native
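Further: lentivirally expressed fusions sorted by FACS into six bins by GFP to DsRed ratio, PSI derived from sequencing read proportions per bin multiplied by bin number.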

Protein stability index of substitutions, site by site:
P20: Q 1.64, M 1.79, Y 3.31, S 3.75, F 2.45, R 4.09, I 3.72, K 4.38, C 2.42, T 2.08, E 3.55, N 4.14, H 3.78, G 4.91, D 4.12
G17: N 1.95, I 2.46, A 2.39, S 1.71, T 1.61, L 2.14, R 1.38, E 2.45, Y 1.09, K 2.94, H 1.4, Q 2.11, D 2.36, C 1.73
P21: S 4.08, G 4.95, T 2.51, N 4.05, M 1.18, E 2.47, A 1.68, V 3.21, I 2.5, Q 3.36, H 3.44, C 2.17, L 1.28, K 3.92, D 2.63, Y 2.59, F 2.69
Q18: C 1.66, S 2.36, N 2.05, M 1.85, D 2.05, Y 3.38, E 2.15, A 2.15, H 2.38, I 2.56, F 3.03, R 2, L 2.07, K 2.16
E15: Q 1.16, P 1.73, N 1.8, G 1.82, I 2.1, T 2.01, R 1.6, K 1.62, S 2.68, A 1.09, L 1.02, Y 1.66, D 2.44, F 2.49, V 2.44, M 2.4, C 1.01, H 1.71
A22: H 4.75, M 4.74, L 4.3, Q 4.92, T 4.77, F 5.01, E 4.63, D 5.53, I 3.19, R 5, G 5.1, K 5.64, S 3.69, N 5.43, W 4.77, Y 4.68, C 4.31, V 3.77
S16: N 2.06, H 2.07, G 2.29, Y 1.95, K 2.28, I 1.59, D 2.2, M 2.59, P 2.07, V 3.02, E 1.81, A 1.97, F 2.37, R 2.12, T 1.92, Q 1.8
G14: W 1.26, N 2.42, K 1.58, Q 2.4, T 1.77, A 2.37, L 2, C 1.52, F 1.61, D 2.25, I 1.24, R 1.67, V 1.15, H 2.07, M 1.63, E 1.53, S 1.42
P13: N 2.4, Y 1.74, S 2.35, I 1.75, K 2.16, G 1.58, M 1.55, H 2.18, E 1.92, R 3.33, L 1.39, Q 2.38, W 1.57, T 1.81, F 1.55, V 1.4
P19: W 2.26, C 3.13, K 3.18, T 1.95, D 4.84, F 1.99, A 1.71, L 2.19, H 3.66, Y 2.33, I 3.09, R 2.69, V 4.2, Q 4.22, N 4.27, S 4.04, M 1.64, E 5.1
C23: S 2.99, Y 4.45, K 4.35, F 4.57, L 4.69, H 5.02, W 4.15, M 5.48, D 4.63, V 4.54, R 4.76, T 4.52, Q 3.8, N 5.35, E 4.31, I 5.17

Variants of: B2
Test: as above
Conditions: c terminus: a fixed tail appended

Protein stability index: each site, then its substitutions
R1: S 3.84, I 3.1, A 4.38, N 4.2, T 3.94, F 3.19, W 2.69, C 4.2, K 3.57, Q 3.96, P 3.81, Y 3.65, M 4.04, L 4.21, E 4.36, H 3.89, V 3.97, G 4.01, D 4.74
I3: D 4.57, F 3.64, H 3.92, R 3.6, Q 4.1, K 3.77, P 3.98, L 3.81, T 3.73, E 4.71, N 3.81, G 4.15, W 3.95, M 3.57, A 4.29, V 3.79, C 3.75, Y 3.56, S 3.45
L5: F 3.35, C 3.11, N 3.89, G 3.74, E 4.49, A 4.09, D 4.49, I 3.67, T 3.72, Y 3.3, W 3.41, S 4.06, R 3.35, M 3.93, P 3.68, Q 4.13, H 3.59, V 3.94, K 3.81
K6: E 4.28, M 4.07, L 3.95, D 3.84, Y 3.78, V 4.09, H 4.71, Q 4.22, S 4.35, C 3.91, N 4.04, I 3.69, F 3.61, R 3.47, T 4.02, G 3.98, A 4.18, W 3.79, P 3.63
R9: A 4.57, C 3.92, D 4.43
R8: V 4.17, W 3.71, K 4.13, Q 4.18, N 4.27, D 4.42, Y 3.96, T 4.33, G 4.46, A 4.06, S 4.32, E 4.73, L 3.77, C 4.23, P 4.19, H 3.71, M 4.12, F 3.75, I 4.08
D4: E 3.61, I 3.17, Y 2.92, K 3.47, L 3.42, R 3.45, W 2.35, A 3.11, H 3.25, N 3.61, C 3.33, F 2.81, M 3.4, S 3.83, T 3.28, Q 3.57, P 3.08, V 2.85, G 3.34
N7: V 3.39, L 3.39, P 3.78, K 3.41, W 3.28, R 3.1, C 3.56, M 3.26, E 4.26, H 3.61, A 3.61, D 4.54, F 2.76, G 4.16, I 3.63, Y 3.02, T 3.73, Q 3.56, S 3.5
D2: E 4.06, S 3.6, C 3.1, H 3.19, I 2.68, Q 3.25, N 3.41, G 3.06, A 2.59, P 3.51, R 3.34, F 2.91, M 3.29, V 3.28, T 3.19, L 2.62, Y 2.76, K 3.12, W 2.1
